Source: paper PMC7737771, “In‐depth interrogation of protein thermal unfolding data with MoltenProt” (Protein Science : A Publication of the Protein Society, 2020)

B1: Δ91‐FATZ‐1 (domain or fragment, UniProt Q9NP98 92-299, looked up)
chain: PTVGGQLGTAGQGFSYSKSNGRGGSQAGGSGSAGQYGSDQQHHLGSGSGAGGTGGPAGQAGRGGAAGTAGVGETGSGDQAGGEGKHITVFKTYISPWERAMGVDPQQKMELGIDLLAYGAKAELPKYKSFNRTAMPYGGYEKASKRMTFQMPKFDLGPLLSEPLVLYNQNLSNRPSFNRTPIPWLSSGEPVDYNVDIGIPLDGETEEL
notes: FATZ-1 (calsarcin-2/myozenin-1) with a deletion of the 91 N-terminal residues; Detailed purification protocols are to be published elsewhere (Mlynek et al., in preparation); also called FATZ‐1 lacking the first 91 residues; calsarcin‐2
B2: α‐actinin‐2 rod domain (domain or fragment, UniProt P35609 274-746, looked up)
chain: AVNQENERLMEEYERLASELLEWIRRTIPWLENRTPEKTMQAMQKKLEDFRDYRRKHKPPKVQEKCQLEINFNTLQTKLRISNRPAFMPSEGKMVSDIAGAWQRLEQAEKGYEEWLLNEIRRLERLEHLAEKFRQKASTHETWAYGKEQILLQKDYESASLTEVRALLRKHEAFESDLAAHQDRVEQIAAIAQELNELDYHDAVNVNDRCQKICDQWDRLGTLTQKRREALERMEKLLETIDQLHLEFAKRAAPFNNWMEGAMEDLQDMFIVHSIEEIQSLITAHEQFKATLPEADGERQSIMAIQNEVEKVIQSYNIRISSSNPYSTVTMDELRTKWDKVKQLVPIRDQSLQEELARQHANERLRRQFAAQANAIGPWIQNKMEEIARSSIQITGALEDQMNQLKQYEHNIINYKNNIDKLEGDHQLIQEALVFDNKHTNYTMEHIRVGWELLLTTIARTINEVETQILTRD
notes: α-actinin-2, rod domain, residues 274-746; Detailed purification protocols are to be published elsewhere (Mlynek et al., in preparation); PDB 4D1E is the longer α-actinin-2 dimer, of which the rod domain is a stretch; also called rod domain of α‐actinin‐2

Assays:
[1] = target: B2; test: cell-based or functional assay
[2] = target: B2; test: SEC-MALS; Superdex‐200 10/300 Increase; 20 mM Tris–HCl pH 7.5, 100 mM NaCl, 50 mM arginine, 50 mM glutamic acid, 0.5 mM PMSF, 1 mM EDTA, 1 mM β‐mercaptoethanol; 100 μl injected at 2-4 mg/ml; 20°C; 0.5 ml/min; conditions: both partners purified
[3] = target: the molecule itself; test: as above

Row | ΔGu°′ of the complex against ΔGu°′ of the rod domain alone, thermal unfolding (NanoDSF) [1] | stoichiometry N [2] | Binder | stoichiometry N [3]
1 | ~2 fold | 2 Δ91‐FATZ‐1 molecules per rod domain dimer | B1 | 
2 |  |  | B2 | 2
